Results as given in the supplement of paper PMC9170038.

Test system: K4 kissing-loop RNA reporter
Assay: apparent KD of K4 kissing-loop reporter; higher = weaker reporter binding
Conditions: Eterna round: R107
Description: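 RNA-MaP round R107: designed RNA switches with theophylline, tryptophan, arginine or FMN aptamers are transcribed on-chip within common flanks. They are titrated with a labelled K4 kissing-loop RNA reporter in RNA-MaP buffer (100 mM Tris pH 7.5, 80 mM KCl, 4 mM MgCl2), without ligand or with the indicated ligand. Median apparent KD per design.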

[1] = input ligand: theophylline 20 uM
[2] = input ligand: tryptophan 2.4 mM
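Note: bound reporter read as fluorescence of individual clusters on recovered sequencing chips by microscopy, with normalized cluster intensities fitted with a binding model.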

Sequence | apparent KD of K4 kissing-loop reporter (input ligand: FMN 200 uM) | apparent KD of K4 kissing-loop reporter (input ligand: arginine 13.2 mM) | apparent KD of K4 kissing-loop reporter (input ligand: none) | apparent KD of K4 kissing-loop reporter [1] | apparent KD of K4 kissing-loop reporter [2]
GCGCGUCAUGUCAGCGGUGACUAUGUCGAUACCAGCAGGGAAACCUGCCCUUGGCAGCGACGCGCUGGAGUGAUGUUCCGACGGC [#2 Exclusion - Theophylline A Attempt #8 (HarryS)] | 165 nM | 153 nM | 154 nM | 173 nM | 145 nM
GCGCGUCAUGUCAGCGGUGACUCUGUCGAUACCAGCGCCGCAAGGCGCCCUUGGCAGCGACGCGCUGGAGUGAUGUUCCAGCGUG [#2 Exclusion - Theophylline A Attempt #13 (HarryS)] | 157 nM | 142 nM | 160 nM | 150 nM | 145 nM
GCGGACAUUCGCAGUGAUGUUGCGACGGAAGGAGCGGAUGAAAAUCCAGGUAGGUCGCCGACAAAAUUAAUUUUAAUGUGUUCGC [#03 K4 Arginine A Same State] | 358 nM | 325 nM | 437 nM | 316 nM | 324 nM
GCGUGGCAGGCGGCCGCCACUCGGACGAGUCACAGUGAUGUUGUGGUUUGCCAGUCGUCUUCAUCGAGGACCGGGUUUGUUGCGC [Exclusion Tryptophan B GF 18] | 206 nM | 169 nM | 212 nM | 159 nM | 171 nM
GCUAGCAAUGCAGGAUAUUAAAACGAGUGAUGUUCGGUACCGAGGAUGGGAAACCAUCCUCGGUAAUAAGAAGGGCAUUGCUAGC | 210 nM | 182 nM | 194 nM | 211 nM | 172 nM
GCUAUAGUGUUAGAUACCAGUAUCCUGCAAAGCCAUCAAAUGCAGUGAUGUUGCAUAAACUACCCUUGGCAGCUAAUUGGGCUCU [theeternabot_exclusion_KL_Theo_B_49] | 226 nM | 201 nM | 213 nM | 213 nM | 187 nM
GCUAUGGUAGGAAGGAGCGCUUAAUUACUAAUAAGAGUGAUGUUCGAUAGUAGGUAUUUGUAGCAGGUAGGUCGCCUACUAUAGC [KL-Arg B24] | 264 nM | 174 nM | 444 nM | 230 nM | 215 nM
GCUAUGGUAGGAAGGAGCGCUUGCUCGGUCAUAUGAGUGAUGUUCGAGACCGAGCAUUUAUAGCAGGUAGGUCGCCUACUAUAGC [Arginine B K4 8] | 253 nM | 223 nM | 192 nM | 200 nM | 198 nM
GCUAUGGUUGGAAGGAGCGUUGAAUUGUUGGUAAGAGUGAUGUUCGAUAGUGGAUAGUUGUAGCAGGUAGGUCGCCAACUAUAGC [KL-Arg B27] | 377 nM | 367 nM | 532 nM | 517 nM | 395 nM
GCUCAUCCGGCAGGAUAUAGGCAGGUAGAGUGAUGUUCGAACUGCAGUUAUCCAUCCUUCUACCUACUAGAAGGGCCGGAUGAGC | 376 nM | 214 nM | 209 nM | 188 nM | 292 nM
GCUGUCCAGUUCGAUACCAGAGUUAUCGCACUGUAGUGAUAAAGUGAUGUUUUAUCAGUCCUCCCUUGGCAGCGAUGCCCGGCUG [theeternabot_exclusion_KL_Theo_B_25] | 164 nM | 151 nM | 166 nM | 165 nM | 154 nM
GGACGCCGGUCGGCCGCCACUCACAGCAGUGAUGUUGCUGAGAAUGUAGCGGAGUGAUGUUCCGAGAGGACCGGGACUGCAGUUU [Same State Tryptophan B GF 9] | 240 nM | 157 nM | 198 nM | 186 nM | 210 nM
GGAGAGGUCUUGUUUGGAUGUGUUUAAUGGCGAGGACCGGUACGGCCGCCACUCGGGUGAUGUUAGUGAUGUUGAUGUAGUGAUG [wzwmullin] | 103 nM | 76.1 nM | 93.4 nM | 149 nM | 89.5 nM
GGAGCAGGUGAAGGAUAUCCCGGGCCAGAGUGAUGUUCUGGAUCCCUUGCCGUUUCUAAACGGGUGGGAGAAGGUCACUGAUAAG [Bibimati] | 132 nM | 154 nM | 234 nM | 180 nM | 164 nM
GGAGGAGAAUAUGAUACCAGCAGAGAGAGAGAGGAAGUAUAGUGAUGUUAUAUGUGAGAAUGCCCUUGGCAGCAUAAGAAGAAGG [whbob_SS_Theo_B_sa87] | 140 nM | 147 nM | 156 nM | 170 nM | 132 nM
GGAGUUACCUGGGAUACCAGUCGGAGACCCAGAGCUCGGAGUGAUGUUCUGGGAUGUUUCGGCCCUUGGCAGCUCUGGGUCUCCC [#2 Exclusion - Theophylline B Attempt #8 (HarryS)] | 909 nM | 615 nM | 723 nM | 936 nM | 675 nM
GGAUAGGACAGAGGAUAUCUCUGAGGCAAGAAAACUUGUCUCUAAAGAGAUGACUCAGUGAUGUUGGGAGAAGGCUGUCCUAUCG [FmnBX 10 - #SwitchBubble #StaticStem] | 202 nM | 139 nM | 141 nM | 167 nM | 125 nM
GGAUAGGACGGAGGAUAUGGGCUAGGCAAGAAUAACUUGUCUAGCAAAUCCAUGAGGAGUGAUGUUCCAGAAGGUUGUCCUAUCG [FmnBX 1 G10+U75] | 167 nM | 94.7 nM | 85.2 nM | 106 nM | 75.4 nM
GGAUAGGACGGAGGAUAUGGUAGUGAUGUUACCAAACUGGUUAAACAUGUCAGAAAACUGGCAUGACCAGAAGGCUGUCCUAUCG [FmnBX 27 G10] | 112 nM | 65.2 nM | 73 nM | 67.5 nM | 76.6 nM
GGAUAGGAUAGAGGAUAUGGAGAACACAAAAGUGACUUGUUGUGUUUAUCCAUAGGGAGUGAUGUUCCAGAAGGCUGUCCUAUCG [MatMod 24 - Jieux - Exclusion - FMN B] | 296 nM | 178 nM | 201 nM | 183 nM | 156 nM
GGAUAGGAUAGAGGAUAUGGCUUACGCAGAAAUAACUUGUUGUGUUUAUCCAUAGGGAGUGAUGUUCCAGAAGGCUGUCCUAUCG [MatMod 18 - Jieux - Exclusion - FMN B] | 732 nM | 204 nM | 266 nM | 240 nM | 183 nM
GGAUGCAUAGUAGAUACCAGCAAGCUCGGAUAGUGAUGUUGUUCGCAGUCAUUUCGGUAGUGCCCUUGGCAGCUAGACGCCCGAU [theeternabot_exclusion_KL_Theo_B_36] | 109 nM | 92.7 nM | 104 nM | 92.3 nM | 97.5 nM

Sequence | apparent KD of K4 kissing-loop reporter (input ligand: FMN 200 uM) | apparent KD of K4 kissing-loop reporter (input ligand: arginine 13.2 mM) | apparent KD of K4 kissing-loop reporter (input ligand: none) | apparent KD of K4 kissing-loop reporter [1] | apparent KD of K4 kissing-loop reporter [2]
GGCACGGUAACGCAACCGCCGUGCGCUUGGGAGGAUAUGUUUCGUGACAGAAGGCCCAGUGAUGUUGGGUCUGUUCAAAAGGACU [Ceenerus] | 355 nM | 124 nM | 105 nM | 122 nM | 88.7 nM
GGCAGUGAUGUUGCCAGUGGCAGAUGCGAAGGAGCGUGGUGAGACACAGGUAGGUCGCGCAUUGAAAUUGCUGUCACUAAAAUGC [#3] | 338 nM | 346 nM | 326 nM | 369 nM | 261 nM
GGCCGCAAGGCGAGCGCUCCCACUCCGGAAGGAGCGCCCGGAAGGGCAGGUAGGUCGCCGGAGUGAUGUUCCGGUGGAGGGCUCG [#2 Exclusion - Arginine A Attempt #18 (Inspired by Omei)] | 435 nM | 319 nM | 417 nM | 772 nM | 469 nM
GGGAAGGACGGAGGAUAUGCACUGAGGAGGAGAAUAUAGUGAUGUUAUAUAAGAGGAAGGAGCUGAGUAGAAGGCCGAGGAAAGG [whbob_SS_FMNB__2th207] | 147 nM | 87.9 nM | 134 nM | 92.4 nM | 129 nM
GGGAGUAGUGCGGCCGCCACUGAGAAAGAAGAAGAAUAUAGUGAUGUUAUAUAGGAAAGGAAGAAUAGGACCGGGCAUUAGAUUU [SSTRyptB.J] | 229 nM | 173 nM | 263 nM | 238 nM | 257 nM
GGGAGUAGUGCGGCCGCCACUGUGAAAGUAGAAGAAUAUAGUGAUGUUAUAUAGGAAUAAAAGAAUAGGACCGGGCAUUAGAUUU [SSTRyptB.V] | 190 nM | 215 nM | 212 nM | 249 nM | 168 nM
GGGCGCGGCGCGGCCGCCACUGCGCCUGGGUGCUCGCCGAGUGAUGUUCGUCGGCGGUUGGGUGGCAGGACCGGGUGCCGGCCCG [BDazzled - #17 SS Tryptophan B] | 1580 nM | 533 nM | 3280 nM | 2140 nM | 457 nM
GGGUGAGCGCGAAGGAGCGCCCUGACAGGUUGCUGCCGUGGGCAGUGAUGUUGCUCAGUCCGGCAGGUAGGUCGCGUGCUCACCC | 187 nM | 163 nM | 164 nM | 210 nM | 170 nM
GGUAGCAUGGCGGCCGCCACUAUCCUUCAUGGUUGACAUUAAGGAUAGCAUAGUGAUGUUAUGAAUAGGACCGGGCCAUGCUACC | 175 nM | 136 nM | 163 nM | 137 nM | 149 nM
GGUAGCAUGGCGGCCGCCACUUACACCACGGCCCUUCUAGUGAUGUUAGAGUGGAUUAUUCCGUUAAGGACCGGGCCAUGCUACC | 629 nM | 430 nM | 745 nM | 650 nM | 273 nM
GGUGACAACCAGAGGUGAUGUAUAGAAUCGCGAGGACCGGUACGGCCGCCACUCGUGAAGAGAAAGGAGUGAUGUUCCGUAAUGG [Kazoo C6] | 271 nM | 249 nM | 282 nM | 364 nM | 124 nM
GGUGCUGUCUGUGCCGCCCUCCUCGUCCCUCGAGGACCGGUACGGCCGCCACUCGAGUGAUGUUCGGGUAGCCAUCCCUGCCAGC [BDazzled - #20 Exc. Tryptophan A] | 527 nM | 328 nM | 431 nM | 341 nM | 322 nM
GGUGCUGUUUGUGCCGCCUUCCUCGUUCCUCGAGGACCGGUACGGCCGCCACUCGAGUGAUGUUUGGGUAGCGAUCCCUGCUAGU [Bdazzled - #13 Exc. Tryptophan A] | 892 nM | 621 nM | 963 nM | 658 nM | 799 nM
GGUUUAUAGGAGGAUACCAGUACGGAUAAAGUACGUUAAUAGUAGAGUGAUGUUCUAAAGUACCCUUGGCAGCUUAGAGUGAGUG [ExTheophylB.M] | 98.6 nM | 164 nM | 136 nM | 182 nM | 94.3 nM
GUAGACGUACCUUCAGUGAUGUUGAAGGAUACCAGAUGUUACCACAUCCCUUGGCAGCCUUGGGAUAACAGUGAGUUGGAAUAUG [Usrite] | 182 nM | 137 nM | 172 nM | 156 nM | 150 nM
GUAGAUAGGCUACAUCUCUAGUCUAAAGACUAGGAUAUCAGGAAACUGAGAAGGAGUCUCAUUGGAGUGAUGUUCCAAGAAUAAU [KL-SSFMN-A16] | 100 nM | 106 nM | 89.2 nM | 109 nM | 71.7 nM
GUAGCACUUGAUAGUGAUGUUAUCAAGGGCAAGGAUAUCAUCUCAAUGAGAAGGUGUCCUUGAUAACUGCUACGGGAAUAUCCCA [Omei KL FMN A Exc D v6] | 444 nM | 89 nM | 96.8 nM | 86 nM | 102 nM
GUAUAUCGAGUGAUGUUCGAAUGCUCCGAAGGAGCGCGGAUAAUCGCAGGUAGGUCGCGGAGCAGUUGCUGAGGAAGCUCAGUAU [Arg A SS t11] | 162 nM | 401 nM | 211 nM | 211 nM | 147 nM
GUAUCGCUAGGAGGAUAUUUCAAUUCGCCUAUAAAUGGUGAUACGGAGUGAUGUUCCGAUUUACGGAAAGAAGGCCUAGUGAUAC [FMN B 8] | 146 nM | 275 nM | 283 nM | 298 nM | 282 nM
GUAUCGCUAGGAGGAUAUUUCAAUUCGUCAAUAAAUGGUGAUACGGAGUGAUGUUCCGAUUUACGGAAAGAAGGCCUAGUGAUAC [FMN B 7] | 173 nM | 265 nM | 298 nM | 287 nM | 285 nM
GUAUCGCUAGGAGGAUAUUUCAUAUAAUAUAUAAAUGGAUAUACGGAGUGAUGUUCCGAUUUACGGAAAGAAGGCCUAGUGAUAC [FMN B 18] | 134 nM | 183 nM | 214 nM | 229 nM | 202 nM
